Data taken from PMC5399476.

Target: wild-type core streptavidin
Test: SDS-PAGE with fluorescence scanning

“wild-type core streptavidin (natural protein)” showed a stoichiometry N of 4.
